# Reference: the supplement of paper PMC7125110
# ± gives the standard error. This sample holds only a part of the variants without activity.
# B1: glmS ribozyme (parent)
# chain: AUAAAAGCGCCAGAACUACAGAAAUGUAGUUGACGAGGAGGAGGUUUAUCGAAUUUUCGGCGGAUGCCUCCAAA
# Variants of: B1
# Experiment: self-cleavage kobs at 2500 uM GlcN6P; higher = faster cleavage; RNA array
# Conditions: with glucosamine-6-phosphate
# Outline: (§1)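 Ribozyme variants carrying barcodes were transcribed in situ on sequenced MiSeq chips by E. coli RNA polymerase and tracked at 37 °C with a hybridised Cy3 probe. They were exposed to 40 μM to 10 mM glucosamine-6-phosphate in HEPES/KCl/Mg(OAc)2 buffer. kobs came from exponential decay fits of normalised per-tile medians, and kcat and KM from weighted Michaelis–Menten fits.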
row,Variant,self-cleavage kobs at 2500 uM GlcN6P
1,U55G C58U C70U,4.84e-05 ± 1.7e-05 s⁻¹
2,A6G U55A C61G,< 1e-05 s⁻¹
3,A15U U45A U57C,4.29e-05 ± 1.9e-05 s⁻¹
4,G7U C68A,< 1e-05 s⁻¹
5,C50A U55A C70U,5.24e-05 ± 2.1e-05 s⁻¹
6,G29U A39U C67G,0.00033 ± 9.8e-05 s⁻¹
7,A15C G66C,0.000277 ± 0.00013 s⁻¹
8,G41U U54G U56G G60A C70A,7.76e-05 ± 2.1e-05 s⁻¹
9,G32A U54A C70G,0.000378 ± 5.3e-05 s⁻¹
10,A48U A53U U69C,0.000134 ± 3.4e-05 s⁻¹
11,A39U U47C U56A,0.00121 ± 0.00039 s⁻¹
12,C11U A12C G32U,< 1e-05 s⁻¹
13,C10A C34G C68G,< 1e-05 s⁻¹
14,G32C C50G C67G,4.82e-05 ± 1.8e-05 s⁻¹
15,C8G A14G G44C U54A C71U,< 1e-05 s⁻¹
16,C10U C16U A33U,6.87e-05 ± 3.4e-05 s⁻¹
17,G13U G38U U54G G62A,< 1e-05 s⁻¹
18,C16U U57G U65A C70A,0.000271 ± 0.00013 s⁻¹
19,A12U A15C G44U,4.81e-05 ± 1.7e-05 s⁻¹
20,A12G G32U A36U U49A C50G,< 1e-05 s⁻¹
21,G32A C58U C68G,0.000103 ± 3.5e-05 s⁻¹

row,Variant,self-cleavage kobs at 2500 uM GlcN6P
1,A14U A15U C16U,5.74e-05 ± 2.3e-05 s⁻¹
2,A15U A39G A52G,0.000162 ± 6.5e-05 s⁻¹
3,G21U A64U,0.000111 ± 2.9e-05 s⁻¹
4,G29A G63A,< 1e-05 s⁻¹
5,A42C A53C U55C,< 1e-05 s⁻¹
6,C8U G37U U54G,< 1e-05 s⁻¹
7,A12G C16U A53C,7.22e-05 ± 1.7e-05 s⁻¹
8,A6G G29C U31C,< 1e-05 s⁻¹
9,C11G G41U A48C C70G,< 1e-05 s⁻¹
10,A39C G60A C61A,< 1e-05 s⁻¹
11,C34A G44U C58G,< 1e-05 s⁻¹
12,A36U G51U G63U,< 1e-05 s⁻¹
13,A15G G32U C71G,8.85e-05 ± 2.5e-05 s⁻¹
14,C34U A48U G59C C68A U69C,< 1e-05 s⁻¹
15,U30G G35U G59U,< 1e-05 s⁻¹
16,C8A G29U C68G,< 1e-05 s⁻¹
17,G13C A14G U46A,5.24e-05 ± 1.3e-05 s⁻¹
18,A6U C16G G29U G43C U47G U54C,< 1e-05 s⁻¹
19,A12U A36C G40U U46A C61G,< 1e-05 s⁻¹
20,G9C C10U A36U A48U C71G,< 1e-05 s⁻¹
21,A48C U49C G59C,< 1e-05 s⁻¹

row,Variant,self-cleavage kobs at 2500 uM GlcN6P
1,C8U C61A C68U,< 1e-05 s⁻¹
2,C34U A39U G41C U69G,< 1e-05 s⁻¹
3,G40U C61U U65A,< 1e-05 s⁻¹
4,A15G G32A C71G,0.000277 ± 0.0001 s⁻¹
5,A39G G43U U54C,6.53e-05 ± 2.4e-05 s⁻¹
6,U45C G60A G63C,< 1e-05 s⁻¹
7,A42G C61A C70A,< 1e-05 s⁻¹
8,C16U G43A C67A U69A,6.4e-05 ± 2.1e-05 s⁻¹
9,G37A A42U A52G C71A,< 1e-05 s⁻¹
10,G43C C58G,< 1e-05 s⁻¹
11,G35U G60A C70G,< 1e-05 s⁻¹
12,C11A U31A A33G,< 1e-05 s⁻¹
13,G7C U45A G51U G59U,< 1e-05 s⁻¹
14,C50A U65G U69G C70A,8e-05 ± 2.9e-05 s⁻¹
15,U46A A52G G63U C67G,< 1e-05 s⁻¹
16,C11G C61A C68A,8.83e-05 ± 2.3e-05 s⁻¹
17,G7A G13A C68A,< 1e-05 s⁻¹
18,A6G U55C C71A,< 1e-05 s⁻¹
19,C16A G38C G40C G44U C67A U69C,< 1e-05 s⁻¹
20,U30C G38U A42C,< 1e-05 s⁻¹
21,U30A G41U C70G,0.00387 ± 0.0011 s⁻¹

row,Variant,self-cleavage kobs at 2500 uM GlcN6P
1,G7A U31A G44C,< 1e-05 s⁻¹
2,A12U G32C G40U U45C,< 1e-05 s⁻¹
3,C10G G63C G66U,< 1e-05 s⁻¹
4,U31C G40U U46G,3.61e-05 ± 1.5e-05 s⁻¹
5,U47A A48U U55A G60A,< 1e-05 s⁻¹
6,A12U G44U C67U,0.0167 ± 0.0049 s⁻¹
7,A36U U54G U57A,< 1e-05 s⁻¹
8,A15C G51A C70G,6.1e-05 ± 2.9e-05 s⁻¹
9,A33C U49G U69C,< 1e-05 s⁻¹
10,G7A C8G C10G G35C,< 1e-05 s⁻¹
11,G9A G29C G37U A48G A52C C70G,< 1e-05 s⁻¹
12,G13A G40C G60A U65A,< 1e-05 s⁻¹
13,C11A G21U A39C U46A U57C,< 1e-05 s⁻¹
14,A6C G7U U54C,< 1e-05 s⁻¹
15,G29A G43C G60C,< 1e-05 s⁻¹
16,G38C G59C C71G,< 1e-05 s⁻¹
17,G29U U54A C58A,0.000128 ± 3.8e-05 s⁻¹
18,G41C A48U A52C A53U,< 1e-05 s⁻¹
19,U47G U56C C71A,5.07e-05 ± 2.5e-05 s⁻¹
20,C11U U49C G63C,< 1e-05 s⁻¹

# Variants of: B1
# Experiment: self-cleavage kobs at 10000 uM GlcN6P; higher = faster cleavage; RNA array
# Conditions: with glucosamine-6-phosphate
# Outline: as §1
row,Variant,self-cleavage kobs at 10000 uM GlcN6P
1,C10U C16U A33U,3.41e-05 ± 1.4e-05 s⁻¹
2,A15U A39G A52G,0.000571 ± 0.00013 s⁻¹
3,C8A G29U C68G,< 1e-05 s⁻¹
4,G9C C10U A36U A48U C71G,< 1e-05 s⁻¹
5,A15G G32A C71G,0.000201 ± 3.3e-05 s⁻¹
